Measurements taken from patent US20090191579A1 (PAIN THERAPEUTICS, published 2009).

Target: MAP1B, endogenous, rat striatum (rat, UniProt P15205 2-2461, limits assumed)
Assay: co-immunoprecipitation (anti-Gα, then anti-MOR) from rat striatum, Western blot

MAP1B, endogenous, rat striatum, sequence (P15205 2-2461 limits assumed): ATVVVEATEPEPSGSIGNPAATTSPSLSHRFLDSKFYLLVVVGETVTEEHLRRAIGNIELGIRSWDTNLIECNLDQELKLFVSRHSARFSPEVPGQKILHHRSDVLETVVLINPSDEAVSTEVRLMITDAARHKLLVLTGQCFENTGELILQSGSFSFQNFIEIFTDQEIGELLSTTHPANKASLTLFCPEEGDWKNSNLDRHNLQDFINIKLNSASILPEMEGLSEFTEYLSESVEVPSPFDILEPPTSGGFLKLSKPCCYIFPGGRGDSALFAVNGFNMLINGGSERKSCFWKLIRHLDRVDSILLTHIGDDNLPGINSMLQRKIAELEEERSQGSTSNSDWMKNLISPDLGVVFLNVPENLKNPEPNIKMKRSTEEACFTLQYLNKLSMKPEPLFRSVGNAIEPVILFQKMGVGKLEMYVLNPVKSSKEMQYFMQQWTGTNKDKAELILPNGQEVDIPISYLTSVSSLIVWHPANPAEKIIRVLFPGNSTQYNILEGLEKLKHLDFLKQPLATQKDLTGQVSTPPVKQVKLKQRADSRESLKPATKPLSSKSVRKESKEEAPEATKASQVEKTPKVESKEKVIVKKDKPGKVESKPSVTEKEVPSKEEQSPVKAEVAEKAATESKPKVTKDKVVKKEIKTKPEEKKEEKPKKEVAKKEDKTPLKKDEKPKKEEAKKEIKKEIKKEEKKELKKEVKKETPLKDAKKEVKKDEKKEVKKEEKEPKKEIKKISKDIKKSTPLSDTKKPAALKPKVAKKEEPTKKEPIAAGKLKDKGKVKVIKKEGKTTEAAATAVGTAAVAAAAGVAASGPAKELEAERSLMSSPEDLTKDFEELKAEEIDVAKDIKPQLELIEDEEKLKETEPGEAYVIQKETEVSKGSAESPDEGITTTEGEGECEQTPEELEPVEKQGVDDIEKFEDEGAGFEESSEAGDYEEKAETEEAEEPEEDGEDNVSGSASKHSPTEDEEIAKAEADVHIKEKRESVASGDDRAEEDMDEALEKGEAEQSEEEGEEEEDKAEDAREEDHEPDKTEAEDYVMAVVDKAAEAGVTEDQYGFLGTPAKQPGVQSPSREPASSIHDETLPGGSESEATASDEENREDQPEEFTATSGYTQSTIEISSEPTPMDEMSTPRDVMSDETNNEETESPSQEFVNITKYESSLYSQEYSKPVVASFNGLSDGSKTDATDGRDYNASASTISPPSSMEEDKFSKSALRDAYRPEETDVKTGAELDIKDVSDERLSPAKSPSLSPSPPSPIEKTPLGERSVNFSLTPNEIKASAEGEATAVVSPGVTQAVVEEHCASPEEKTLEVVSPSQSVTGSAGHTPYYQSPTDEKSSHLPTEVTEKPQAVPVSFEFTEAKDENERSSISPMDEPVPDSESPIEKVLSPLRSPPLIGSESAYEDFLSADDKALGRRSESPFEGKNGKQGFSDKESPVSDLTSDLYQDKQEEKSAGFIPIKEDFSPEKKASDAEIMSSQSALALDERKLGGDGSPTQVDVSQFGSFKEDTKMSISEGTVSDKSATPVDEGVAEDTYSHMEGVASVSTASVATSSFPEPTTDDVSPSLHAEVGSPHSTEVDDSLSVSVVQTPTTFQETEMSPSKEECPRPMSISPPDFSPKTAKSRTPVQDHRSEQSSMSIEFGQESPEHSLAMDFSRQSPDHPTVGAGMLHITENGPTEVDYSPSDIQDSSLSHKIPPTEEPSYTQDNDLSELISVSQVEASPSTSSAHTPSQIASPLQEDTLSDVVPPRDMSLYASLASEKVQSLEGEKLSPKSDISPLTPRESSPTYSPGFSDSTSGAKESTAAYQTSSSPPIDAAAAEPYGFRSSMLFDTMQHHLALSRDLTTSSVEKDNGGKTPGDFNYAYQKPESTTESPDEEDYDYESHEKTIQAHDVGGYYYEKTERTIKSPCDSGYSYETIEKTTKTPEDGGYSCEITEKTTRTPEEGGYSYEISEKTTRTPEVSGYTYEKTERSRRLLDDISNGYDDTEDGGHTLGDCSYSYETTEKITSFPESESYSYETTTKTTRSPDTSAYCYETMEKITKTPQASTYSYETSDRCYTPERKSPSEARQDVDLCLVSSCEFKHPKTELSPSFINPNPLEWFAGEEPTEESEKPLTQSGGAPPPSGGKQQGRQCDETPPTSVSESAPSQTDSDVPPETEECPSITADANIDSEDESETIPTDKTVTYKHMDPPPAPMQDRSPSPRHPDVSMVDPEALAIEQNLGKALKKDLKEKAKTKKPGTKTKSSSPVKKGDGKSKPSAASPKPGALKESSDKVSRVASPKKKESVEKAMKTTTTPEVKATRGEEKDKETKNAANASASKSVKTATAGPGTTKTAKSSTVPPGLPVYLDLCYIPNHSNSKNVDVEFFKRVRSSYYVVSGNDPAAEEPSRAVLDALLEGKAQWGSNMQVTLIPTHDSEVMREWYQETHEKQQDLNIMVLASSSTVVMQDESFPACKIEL

binding result: no binding
B1: mu opioid receptor (MOR), endogenous, rat striatum (receptor, UniProt P33535 1-398, looked up)
chain: MDSSTGPGNTSDCSDPLAQASCSPAPGSWLNLSHVDGNQSDPCGLNRTGLGGNDSLCPQTGSPSMVTAITIMALYSIVCVVGLFGNFLVMYVIVRYTKMKTATNIYIFNLALADALATSTLPFQSVNYLMGTWPFGTILCKIVISIDYYNMFTSIFTLCTMSVDRYIAVCHPVKALDFRTPRNAKIVNVCNWILSSAIGLPVMFMATTKYRQGSIDCTLTFSHPTWYWENLLKICVFIFAFIMPVLIITVCYGLMILRLKSVRMLSGSKEKDRNLRRITRMVLVVVAVFIVCWTPIHIYVIIKALITIPETTFQTVSWHFCIALGYTNSCLNPVLYAFLDENFKRCFREFCIPTSSTIEQQNSTRVRQNTREHPSTANTVDRTNHQLENLEAETAPLP
notes: Endogenous receptor immunoprecipitated with anti-MOR or detected with anti-MOR in anti-Gα immunoprecipitates; also called µ opioid receptor
